Measurements from paper PMC7222407.

Biological target: Cu,Zn superoxide dismutase (SOD1) from Chionodraco hamatus (Chionodraco hamatus)
Test: SEC; gel exclusion chromatography on a Sephadex G-75 column against standards (bovine serum albumin, ovalbumin, chymotrypsinogen A, cytochrome c); native mass compared with the monomer mass from SDS-PAGE with 2-mercaptoethanol and MALDI-TOF

stoichiometry N: 2
Substance: Cu,Zn superoxide dismutase (SOD1) from Chionodraco hamatus (enzyme)
